Laboratory results taken from patent US20250101107A1 (REPERTOIRE IMMUNE MEDICINES, published 2025).

B1: H6K3-IgG-IL12 (1×HC) (other)
heavy 1: EVQLVQSGAEVKKPGATVKISCKASGYTFTDFTMHWVQQAPGKGLEWIGLVNPNNGGNIYAEKFQGRVTLTVDTSTSTAYMELSSLRSEDTAVYYCGRVPLYTSHGMDYWGQGTLVTVSSASTKGPSVFPLAPSSKSTSGGTAALGCLVKDYFPEPVTVSWNSGALTSGVHTFPAVLQSSGLYSLSSVVTVPSSSLGTQTYICNVNHKPSNTKVDKKVEPKSCDKTHTCPPCPAPEAAGGPSVFLFPPKPKDTLMISRTPEVTCVVVDVSHEDPEVKFNWYVDGVEVHNAKTKPREEQYASTYRVVSVLTVLHQDWLNGKEYKCKVSNKALGAPIEKTISKAKGQPREPQVYTLPPSRDELTKNQVSLWCLVKGFYPSDIAVEWESNGQPENNYKTTPPVLDSDGSFFLYSKLTVDKSRWQQGNVFSCSVMHEALHNHYTQKSLSLSPGKGGGSGGGGSGGGGSGGGGSIWELKKDVYVVELDWYPDAPGEMVVLTCDTPEEDGITWTLDQSSEVLGSGKTLTIQVKEFGDAGQYTCHKGGEVLSHSLLLLHKKEDGIWSTDILKDQKEPKNKTFLRCEAKNYSGRFTCWWLTTISTDLTFSVKSSRGSSDPQGVTCGAATLSAERVRGDNKEYEYSVECQEDSACPAAEESLPIEVMVDAVHKLKYENYTSSFFIRDIIKPDPPKNLQLKPLKNSRQVEVSWEYPDTWSTPHSYFSLTFCVQVQGKSKREKKDRVFTDKTSATVICRKNASISVRAQDRYYSSSWSEWASVPCSGGGSGGGSGGGSGGGSRNLPVATPDPGMFPCLHHSQNLLRAVSNMLQKARQTLEFYPCTSEEIDHEDITKDKTSTVEACLPLELTKNESCLNSRETSFITNGSCLASRKTSFMMALCLSSIYEDLKMYQVEFKTMNAKLLMDPKRQIFLDQNMLAVIDELMQALNFNSETVPQKSSLEEPDFYKTKIKLCILLHAFRIRAVTIDRVMSYLNAS
heavy 2: EVQLVQSGAEVKKPGATVKISCKASGYTFTDFTMHWVQQAPGKGLEWIGLVNPNNGGNIYAEKFQGRVTLTVDTSTSTAYMELSSLRSEDTAVYYCGRVPLYTSHGMDYWGQGTLVTVSSASTKGPSVFPLAPSSKSTSGGTAALGCLVKDYFPEPVTVSWNSGALTSGVHTFPAVLQSSGLYSLSSVVTVPSSSLGTQTYICNVNHKPSNTKVDKKVEPKSCDKTHTCPPCPAPEAAGGPSVFLFPPKPKDTLMISRTPEVTCVVVDVSHEDPEVKFNWYVDGVEVHNAKTKPREEQYASTYRVVSVLTVLHQDWLNGKEYKCKVSNKALGAPIEKTISKAKGQPREPQVYTLPPSRDELTKNQVSLSCAVKGFYPSDIAVEWESNGQPENNYKTTPPVLDSDGSFFLVSKLTVDKSRWQQGNVFSCSVMHEALHNHYTQKSLSLSPGK
light: EIVLTQSPATLSLSPGERATISCRASESVDSYDINSMHWYQQKPGQAPRLLIYRASHLQSGIPARFSGSGSRTDFTLTISSLEPEDFATYYCQQSNEDPLTFGQGTKLEIKRTVAAPSVFIFPPSDEQLKSGTASVVCLLNNFYPREAKVQWKVDNALQSGNSQESVTEQDSKDSTYSLSSTLTLSKADYEKHKVYACEVTHQGLSSPVTKSFNRGEC
notes: also called hCD8IgG-1×IL12 (HC); hCD8IgG-IL12 (1 × HC)
B2: rIL-12 (ligand)
alpha: RVIPVSGPARCLSQSRNLLKTTDDMVKTAREKLKHYSCTAEDIDHEDITRDQTSTLKTCLPLELHKNESCLATRETSSTTRGSCLPPQKTSLMMTLCLGSIYEDLKMYQTEFQAINAALQNHNHQQIILDKGMLVAIDELMQSLNHNGETLRQKPPVGEADPYRVKMKLCILLHAFSTRVVTINRVMGYLSSA
beta: MWELEKDVYVVEVDWTPDAPGETVNLTCDTPEEDDITWTSDQRHGVIGSGKTLTITVKEFLDAGQYTCHKGGETLSHSHLLLHKKENGIWSTEILKNFKNKTFLKCEAPNYSGRFTCSWLVQRNMDLKFNIKSSSSSPDSRAVTCGMASLSAEKVTLDQRDYEKYSVSCQEDVTCPTAEETLPIELALEARQQNKYENYSTSFFIRDIIKPDPPKNLQMKPLKNSQVEVSWEYPDSWSTPHSYFSLKFFVRIQRKKEKMKETEEGCNQKGAFLVEKTSTEVQCKGGNVCVQAQDRYYNSSCSKWACVPCRVRS
notes: also called rmIL-12; non-targeted recombinant mouse IL-12; copies: 1 + 1

Columns and labels:
[1] = target: T1, human CD8 on human T cells (human, UniProt P01732 22-235; P10966 22-210); assay: flow cytometry, human PBMCs incubated 30 min at 37 C with the fusion protein, AF647 anti-human IL-12, gated on CD8+ T cells
T1 construct: whole, on cells; Target as carried by human CD3+/CD8+ T cells, PBMCs or MART-1-specific T cells; the mice were immunized with human CD8a; also called hCD8; CD8 expressed on the cell surface
T1 sequence (P01732 22-235, chain 1 of 2): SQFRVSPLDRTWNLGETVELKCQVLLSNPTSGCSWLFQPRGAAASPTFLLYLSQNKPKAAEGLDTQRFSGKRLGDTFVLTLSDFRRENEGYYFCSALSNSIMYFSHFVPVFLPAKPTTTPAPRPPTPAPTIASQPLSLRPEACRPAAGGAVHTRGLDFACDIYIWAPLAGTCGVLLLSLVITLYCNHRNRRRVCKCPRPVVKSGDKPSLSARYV
T1 sequence (P10966 22-210, chain 2 of 2): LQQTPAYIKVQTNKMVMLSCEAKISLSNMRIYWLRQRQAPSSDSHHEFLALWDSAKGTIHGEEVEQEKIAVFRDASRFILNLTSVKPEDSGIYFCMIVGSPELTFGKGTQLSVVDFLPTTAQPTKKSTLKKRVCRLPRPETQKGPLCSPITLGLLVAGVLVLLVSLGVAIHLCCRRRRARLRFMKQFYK
Protocol: Fusion proteins H6K3-IgG-IL12 (LC) and H6K3-IgG-IL12 (1×HC) were evaluated for their ability to selectively bind human CD8+ T cells in PBMCs. Briefly, 5×10⁴ human PBMCs (StemCell Technologies) were incubated with 7 serial 5-fold dilutions of one of the two aforementioned H6K3-IgG-IL12 constructs for 30 minutes at 37° C. Cells were washed twice with MACS buffer and stained for 20 minutes at 4° C. with fluorophore-conjugated anti-CD3, anti-CD4, anti-CD8, anti-CD56, and anti-IL12 antibodies, and viability dye. Cells were analyzed on a FACSCelesta using Diva software (BD Biosciences). Binding activity was quantified and represented as the mean fluorescent intensity values of IL-12 on either CD8+ T cells or NK Cells. As shown in FIGS. 16A-16B, both H6K3-IgG-IL12 (LC) and H6K3-IgG-IL12 (1×HC) were able to selectively bind human CD8+ T cells over NK cells at a range of concentrations.

[2] = target: T1, human CD8 on human T cells; assay: flow cytometry, human PBMCs incubated 30 min at 37 C with the fusion protein, anti-IL-12, gated on CD8+ T cells
Protocol: (§1) Fusion proteins H6K3-IgG-IL12 (LC) and H6K3-IgG-IL12 (1×HC) were also evaluated for their ability to bind CD8-expressing cells in human and cynomolgus monkey PBMCs. Briefly, 5×10⁴ human PBMCs (StemCell Technologies) or cynomolgus monkey PBMCs (iQ Biosciences) were incubated with 7 serial 5-fold dilutions of one of the two aforementioned H6K3-IgG-IL12 constructs for 30 minutes at 37° C. Cells were washed twice with MACS buffer and stained with viability dye and fluorophore-conjugated antibodies against IL-12 and cell-surface markers for 20 minutes at 4° C. Cells were analyzed on a FACSCelesta using Diva software (BD Biosciences). Binding activity for all treatments was quantified and represented as the mean fluorescence intensity values of IL-12 on human CD8+ T cells and NK cells (FIGS. 17A-17B) and on cynomolgus monkey CD8+ T cells and NK cells (FIGS. 17C-17D). For the H6K3-IgG-IL12 (LC) treatments, results are also reported as the frequency of IL-12+CD8+ T cells and NK cells (FIG. 17E). As shown in FIGS. 17A-17D, both H6K3-IgG-IL12 (LC) and H6K3-IgG-IL12 (1×HC) were able to selectively bind human CD8+ T cells over NK cells at a range of concentrations. Only a small proportion of human NK cells express CD8, and therefore the H6K3-IgG-IL12 (LC) construct only bound a small proportion of human NK cells (FIG. 17E upper left and upper right). […]

[3] = target: T2, cynomolgus monkey CD8 on cynomolgus cells (cynomolgus monkey); assay: flow cytometry, cynomolgus PBMCs incubated 30 min at 37 C with the fusion protein, anti-IL-12, gated on NK cells, which express CD8 in the cynomolgus monkey
T2 construct: whole, on cells; also called cynomolgus CD8
Protocol: as §1

[4] = target: T1, human CD8 on human T cells; assay: cell-based or functional assay
[5] = target: T2, cynomolgus monkey CD8 on cynomolgus …; assay: flow cytometry, cynomolgus PBMCs incubated 30 min at 37 C with the fusion protein, anti-IL-12, gated on CD8+ T cells
Protocol: as §1

[6] = target: T2, cynomolgus monkey CD8 on cynomolgus …; assay: cell-based or functional assay
mouse CD8 on mouse cells = target: T3, mouse CD8 on mouse cells (mouse, UniProt P01731 28-247); assay: in vivo, B16F10 tumour-bearing mice, flow cytometry of peripheral blood 4 days after the first i.v. dose; % IL-12p40+ of CD8+ T cells
T3 construct: whole, on cells; Carried by CD8+ T cells and CD8+ dendritic cells of C57BL/6 mice, read ex vivo after dosing; also called mCD8
T3 sequence (P01731 28-247): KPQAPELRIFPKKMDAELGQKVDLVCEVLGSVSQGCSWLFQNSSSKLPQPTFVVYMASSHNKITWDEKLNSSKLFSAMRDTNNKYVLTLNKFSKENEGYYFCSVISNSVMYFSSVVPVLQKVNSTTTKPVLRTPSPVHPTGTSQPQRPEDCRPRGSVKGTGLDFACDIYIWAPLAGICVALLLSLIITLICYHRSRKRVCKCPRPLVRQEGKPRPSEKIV
Protocol: Mice were injected weekly for a total of 4 doses, at a dose equivalent to 10 μg of recombinant IL12. Tumor volume was measured twice per week, and mice were euthanized if tumor volume exceeded 2000 mm³. […] Specifically, in the MC38 model, treatment with the CD8IgG-IL12 (LC) Clone 2 construct controlled tumor growth up to day 21 and yielded 3/8 complete responders, whereas treatment with the CD8IgG-IL12 (1×HC) construct controlled tumor growth for the entire duration of the study and yielded 7/8 complete responders (FIGS. 6A-6C). In the B16-F10 model, which is typically less responsive to immunotherapy, both constructs limited tumor growth for up to 14 days after the initial dose (FIGS. 7A-7C).
In the same study, the two anti-CD8:IL-12 fusion constructs were also evaluated for their ability to be retained in tissues. Peripheral blood cells were collected from MC38 and B16-F10 tumor-bearing mice 4 days after administration of the first dose of the IL-12 construct. Samples were analyzed by flow cytometry. In the case of the MC38 tumor-bearing mice, IL-12 was detected on the surface of CD8⁺ T cells 4 days post-treatment with either of the two anti-CD8:IL-12 fusion protein constructs, but not on the surface of CD4⁺ T cells or NK cells (FIG. 8A). […]

Row | Binder | EC50 (read off the curve) [1] [pM] | EC50 (read off the curve) [2] [pM] | EC50 (read off the curve) [3] [pM] | EC50 for stimulation of pSTAT4 signaling, human CD8+ T cells in activated PBMCs [4] [pM] | EC50 (read off the curve) [5] [pM] | EC50 for stimulation of pSTAT4 signaling, cynomolgus CD8+ T cells in activated PBMCs [6] [pM] | EC50 for stimulation of pSTAT4 signaling, cynomolgus NK cells in activated PBMCs [6] [pM] | binding result (mouse CD8 on mouse cells)
1 | B1 | ~60 | ~40 | ~90 | 2.3 | ~50 | 2.3 | 2 | 
2 | B2 |  |  |  |  |  |  |  | no binding
